One substance from US20060193851A1 can be followed below.

This data set relates to 10C12 F(ab')2-leucine zipper.

As for factor X, the “rate of FX activation by relipidated TF(1-243):FVIIa after incubating 10C12 with the substrate FX” value is given as 10C12 at up to 200 µg/ml did not inhibit FXa generation in either experimental setting.
